The values below come from patent US20210130437A1.

Experiment [1] concerns the target TIGIT (Homo sapiens (Human)) (UniProt Q495A1). The experiment in a line: flow cytometry, TIGIT-expressing cells, secondary reagent alone.
Experiment [2] deals with CD226 (Homo sapiens (Human)) (UniProt Q15762). The experiment in a line: flow cytometry, CD226-expressing cells, secondary reagent alone. (In general: In flow cytometry, cells or beads pass a laser one at a time.)
For experiment [3], the target named is T1, CD96 (UniProt P40200).
T1 sequence (looked up): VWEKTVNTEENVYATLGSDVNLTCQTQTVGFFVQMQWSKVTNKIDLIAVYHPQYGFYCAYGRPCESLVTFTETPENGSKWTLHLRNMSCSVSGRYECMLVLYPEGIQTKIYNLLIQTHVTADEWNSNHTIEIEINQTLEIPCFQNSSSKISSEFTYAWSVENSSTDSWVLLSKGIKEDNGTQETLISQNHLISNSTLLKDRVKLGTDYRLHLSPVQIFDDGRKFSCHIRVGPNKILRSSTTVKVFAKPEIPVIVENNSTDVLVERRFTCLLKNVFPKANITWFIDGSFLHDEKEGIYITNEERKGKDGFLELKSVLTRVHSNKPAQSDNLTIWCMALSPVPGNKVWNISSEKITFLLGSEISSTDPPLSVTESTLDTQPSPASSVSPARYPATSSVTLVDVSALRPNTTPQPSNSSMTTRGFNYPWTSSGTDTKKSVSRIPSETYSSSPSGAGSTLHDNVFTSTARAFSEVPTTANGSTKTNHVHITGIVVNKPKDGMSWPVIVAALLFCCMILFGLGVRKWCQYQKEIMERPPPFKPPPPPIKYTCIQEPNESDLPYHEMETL
In words: flow cytometry, CD96-expressing cells, secondary reagent alone.

The target of experiment [4] is CD112R (UniProt Q6DKI7). The experiment in a line: flow cytometry, CD112R-expressing cells, secondary reagent alone.
CD112R, sequence (Q6DKI7 whole entry, the tested form may be a part): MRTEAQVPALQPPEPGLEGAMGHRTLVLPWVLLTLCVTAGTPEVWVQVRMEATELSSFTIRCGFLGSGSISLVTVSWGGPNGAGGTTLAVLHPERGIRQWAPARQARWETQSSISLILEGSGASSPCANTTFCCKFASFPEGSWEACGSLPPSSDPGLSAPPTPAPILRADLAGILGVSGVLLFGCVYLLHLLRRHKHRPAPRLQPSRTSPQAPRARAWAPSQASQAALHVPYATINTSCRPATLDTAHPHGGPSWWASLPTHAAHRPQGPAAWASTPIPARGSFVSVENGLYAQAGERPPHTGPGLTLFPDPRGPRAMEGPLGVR
Experiment [5] has as its target T1, CD96. In words: flow cytometry, 100 nM Fc fusion on cells expressing CD96.
Experiment [6] addresses human PD-1 and human TIGIT co-expressed on Jurkat cells (Jurkat/PD-1/TIGIT cells) (human). In words: flow cytometry, Jurkat/PD-1/TIGIT cells.
Experiment [7] concerns the target human TIGIT expressed on cells (Jurkat/TIGIT cells) (human) (UniProt Q495A1). The experiment in a line: flow cytometry, Jurkat/TIGIT cells.
The target of experiment [8] is human PD-1 expressed on cells (Jurkat/PD-1 cells) (human) (UniProt Q15116). The experiment in a line: flow cytometry, Jurkat/PD-1 cells.
human PD-1 expressed on cells (Jurkat/PD-1 cells) (human), sequence (Q15116 21-288): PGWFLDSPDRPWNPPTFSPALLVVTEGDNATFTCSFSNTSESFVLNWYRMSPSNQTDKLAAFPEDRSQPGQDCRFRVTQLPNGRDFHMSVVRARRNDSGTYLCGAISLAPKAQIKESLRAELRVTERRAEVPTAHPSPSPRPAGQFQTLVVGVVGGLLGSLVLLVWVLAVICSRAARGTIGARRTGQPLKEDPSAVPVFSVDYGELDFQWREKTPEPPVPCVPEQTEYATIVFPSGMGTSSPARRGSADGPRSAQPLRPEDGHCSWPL
For experiment [9], the target named is rB7H6.Fc (recombinant B7-H6 Fc fusion protein, R&D Systems) (human) (UniProt Q68D85). The experiment in a line: flow cytometry of yeast-displayed parental NKp30 stained with […] rB7H6.Fc.
rB7H6.Fc (recombinant B7-H6 Fc fusion protein, R&D Systems) (human), sequence (Q68D85 25-262 limits assumed): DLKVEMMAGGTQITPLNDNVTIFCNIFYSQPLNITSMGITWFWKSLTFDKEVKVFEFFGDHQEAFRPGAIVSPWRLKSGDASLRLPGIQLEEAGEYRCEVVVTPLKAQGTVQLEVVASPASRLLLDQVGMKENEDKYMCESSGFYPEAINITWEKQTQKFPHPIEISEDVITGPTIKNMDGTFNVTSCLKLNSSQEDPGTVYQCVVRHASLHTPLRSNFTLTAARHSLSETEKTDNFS
The target of experiment [10] is CD112R (UniProt Q6DKI7). The experiment in a line: flow cytometry, CD112R-expressing cells, 100 nM.
Experiment [11] has as its target PD-1 stably expressed on Jurkat/IL-2 reporter cells (Jurkat/PD-1) (human) (UniProt Q15116). The experiment in a line: cell-based or functional assay.

human PD-1 and human TIGIT co-expressed on Jurkat cells (Jurkat/PD-1/TIGIT cells) (human), sequence (chain, as listed by the source, chain 1 of 2): as the sequence (Q15116 21-288) above
human PD-1 and human TIGIT co-expressed on Jurkat cells (Jurkat/PD-1/TIGIT cells) (human), sequence (chain, as listed by the source, chain 2 of 2): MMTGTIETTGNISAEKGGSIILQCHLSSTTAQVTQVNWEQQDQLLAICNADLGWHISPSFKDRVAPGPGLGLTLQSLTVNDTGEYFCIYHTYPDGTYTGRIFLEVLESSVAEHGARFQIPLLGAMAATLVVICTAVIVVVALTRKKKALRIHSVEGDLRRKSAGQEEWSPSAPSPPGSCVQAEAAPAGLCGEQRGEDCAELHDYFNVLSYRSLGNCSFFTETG
PD-1 stably expressed on Jurkat/IL-2 reporter cells (Jurkat/PD-1) (human), sequence (Q15116 25-288): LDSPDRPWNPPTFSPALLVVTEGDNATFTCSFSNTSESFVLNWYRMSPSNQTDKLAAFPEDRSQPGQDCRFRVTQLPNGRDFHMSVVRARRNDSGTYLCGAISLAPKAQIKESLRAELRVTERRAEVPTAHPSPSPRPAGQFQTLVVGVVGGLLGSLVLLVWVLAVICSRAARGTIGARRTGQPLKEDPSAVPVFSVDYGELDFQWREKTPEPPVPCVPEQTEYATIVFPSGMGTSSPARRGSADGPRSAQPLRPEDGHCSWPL
CD226 (Homo sapiens (Human)), sequence (Q15762 19-336): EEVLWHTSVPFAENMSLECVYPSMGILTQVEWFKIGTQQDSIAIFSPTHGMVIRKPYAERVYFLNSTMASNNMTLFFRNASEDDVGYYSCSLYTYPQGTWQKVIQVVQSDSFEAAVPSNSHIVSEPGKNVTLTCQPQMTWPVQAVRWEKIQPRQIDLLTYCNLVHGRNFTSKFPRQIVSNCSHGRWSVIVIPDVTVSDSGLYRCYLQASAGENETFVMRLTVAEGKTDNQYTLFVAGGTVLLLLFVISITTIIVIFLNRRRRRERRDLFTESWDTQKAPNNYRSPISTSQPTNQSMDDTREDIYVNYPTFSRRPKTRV
TIGIT (Homo sapiens (Human)), sequence (Q495A1 22-244): as the sequence (chain, as listed by the source, chain 2 of 2) above
human TIGIT expressed on cells (Jurkat/TIGIT cells) (human), sequence (Q495A1 22-244): as the sequence (chain, as listed by the source, chain 2 of 2) above

Turning to Anti-hFc PE (antibody), the MFI at 20 nM was 1140 in [1], 1010 in experiment [2], 1060 with CD96 [3] and 1010 in the experiment with CD112R [4].
In the experiment with CD96 [5], “CD112 variant IgV-Fc fusion V19A, N47K, N106Y, K116E, S118Y” registered an MFI at 100 nM of 2850.
Consider “Fc Control (heterodimer) (from UniProt P0DOX5 218-449; P0DOX5 218-449)”, for which the MFI at 6.25 nM in [6] is 48 MFI.
On to “Fc Control (homodimer) (from UniProt P0DOX5 218-449)”, for which the MFI at 6.25 nM in experiment [6] amounted to 66 MFI.
Regarding “Human IgG (irrelevant Ig control) (antibody)”, the MFI at 6.25 nM in [7] worked out at 48 MFI; in experiment [8], 41 MFI; in experiment [6], 41 MFI. This substance showed a Fold increase over wildtype PD-L1 IgV-Fc in experiment [8] of 0 fold. The substance also registered an MFI at 50 nM in [8] of 198 MFI.
In experiment [8], “PD-L1 variant IgV-Fc I20L/K28E/D43G/N45D/V58A/Q89R (Fc fusion)” registered a Fold increase over wildtype PD-L1 IgV-Fc of 15.4 fold and an MFI at 50 nM of 80500 MFI.
Consider “Wild Type CD155 full ECD Fc (from UniProt P15151 21-343) (Fc fusion)”, for which the MFI at 6.25 nM in experiment [6] worked out at 249 MFI.
Still for that read-out and setting: as for “Wild Type PD-L2 full ECD Fc (from UniProt Q9BQ51 20-220) (Fc fusion)”, the figure is 314 MFI.
On to “parental NKp30 strain (wild-type NKp30 IgC-like domain displayed on yeast) (from UniProt O14931 19-134) (receptor)”, for which the MFI in experiment [9] worked out at 90.
Take “variant CD112 IgV-Fc R12W, Y33H, Q79R, V101M, A112V (Fc fusion)”: the MFI at 100 nM with CD112R [10] came out at 2050.
Same read-out and setting: with “variant CD112 IgV-Fc Y33H, A112V, S118Y (Fc fusion)” the figure was 2350.
Regarding “variant PD-L2 IgV-Fc H15Q/T47A/K65R/S67L/Q82R/V89D (Fc fusion)”, the MFI at 6.25 nM in experiment [6] was determined as 20300 MFI.
In experiment [11], “variant PD-L2 IgV-Fc I13V,H15Q,T47A,E58G,S67L,Q82R,V89D (Fc fusion)” showed a Fold increase over wildtype PD-L2 IgV-Fc (IFN gamma, MLR) of 0.61 fold and an IFN gamma levels pg/mL (MLR) of 836 pg/mL.
